Assay results reported in patent publication US6468740.
surface (amide) = not defined here

The binders below were run against monoclonal antibody D32.39 (assay: not given).

Q: With Ac-RQFKV-{surface (amide)} (reading uncertain; also: C-terminus amide-linked to surface) [RQFKV, surface-immobilized peptide] as the binder, how does the Normalized Intensity (%) read?
A: 16%

Q: Which Normalized Intensity (%) does the source give for Ac-RRQFK-{surface (amide)} (reading uncertain; also: C-terminus amide-linked to surface) [RRQFK, surface-immobilized peptide] here?
A: 12%

Q: How did the Normalized Intensity (%) turn out when Ac-RQFKVV-{surface (amide)} (reading uncertain; also: C-terminus amide-linked to surface) [RQFKVV, surface-immobilized peptide] was run?
A: 54%

Q: How did the Normalized Intensity (%) turn out when Ac-FKVV-{surface (amide)} (reading uncertain) [FKVV, surface-immobilized peptide] was run?
A: 10%

Q: For Ac-RRQFKV-{surface (amide)} (reading uncertain; also: C-terminus amide-linked to surface) [RRQFKV, surface-immobilized peptide], which Normalized Intensity (%) is on record?
A: 16%

Q: Which Normalized Intensity (%) does the source give for Ac-LRRQFK-{surface (amide)} (reading uncertain; also: C-terminus amide-linked to surface) [LRRQFK, surface-immobilized peptide] here?
A: 12%

Q: With Ac-RRQFKVV-{surface (amide)} (reading uncertain; also: C-terminus amide-linked to surface) [RRQFKVV, surface-immobilized peptide] as the binder, how does the Normalized Intensity (%) read?
A: 58%

Q: For Ac-FLRRQFK-{surface (amide)} (reading uncertain; also: C-terminus amide-linked to surface) [FLRRQFK, surface-immobilized peptide], which Normalized Intensity (%) is on record?
A: 10%

Q: How did the Normalized Intensity (%) turn out when Ac-QFKVV-{surface (amide)} (reading uncertain; also: C-terminus amide-linked to surface) [QFKVV, surface-immobilized peptide] was run?
A: 17%

Q: Ac-FLRRQ-{surface (amide)} (reading uncertain) [FLRRQ, surface-immobilized peptide] was tested. Which Normalized Intensity (%) did it give?
A: 8%

Q: For Ac-FLRR-{surface (amide)} (reading uncertain) [FLRR, surface-immobilized peptide], which Normalized Intensity (%) is on record?
A: 6%

Q: How did the Normalized Intensity (%) turn out when Ac-LRRQFKV-{surface (amide)} (reading uncertain; also: C-terminus amide-linked to surface) [LRRQFKV, surface-immobilized peptide] was run?
A: 16%

Q: With Ac-QFKV-{surface (amide)} (reading uncertain; also: C-terminus amide-linked to surface) [QFKV, surface-immobilized peptide] as the binder, how does the Normalized Intensity (%) read?
A: 11%

Q: With Ac-RRQF-{surface (amide)} (reading uncertain; also: C-terminus amide-linked to surface) [RRQF, surface-immobilized peptide] as the binder, how does the Normalized Intensity (%) read?
A: 11%

Q: How did the Normalized Intensity (%) turn out when Ac-FKVVT-{surface (amide)} (reading uncertain) [FKVVT, surface-immobilized peptide] was run?
A: 13%

Q: For Ac-LRRQFKVVT-{surface (amide)} (reading uncertain; also: C-terminus amide-linked to surface), which Normalized Intensity (%) is on record?
A: 87%

Q: Ac-LRRQFKVV-{surface (amide)} (reading uncertain; also: C-terminus amide-linked to surface) [LRRQFKVV, surface-immobilized peptide] was tested. Which Normalized Intensity (%) did it give?
A: 44%

Q: With Ac-RQFKVVT-{surface (amide)} (reading uncertain; also: C-terminus amide-linked to surface) [RQFKVVT, surface-immobilized peptide] as the binder, how does the Normalized Intensity (%) read?
A: 99%

Q: With Ac-FLRRQFKV-{surface (amide)} (reading uncertain; also: C-terminus amide-linked to surface) [FLRRQFKV, surface-immobilized peptide] as the binder, how does the Normalized Intensity (%) read?
A: 14%

Q: How did the Normalized Intensity (%) turn out when Ac-QFKVVT-{surface (amide)} (reading uncertain; also: C-terminus amide-linked to surface) [QFKVVT, surface-immobilized peptide] was run?
A: 28%

Q: Ac-KVVT-{surface (amide)} (reading uncertain; also: C-terminus amide-linked to surface) [KVVT, surface-immobilized peptide] was tested. Which Normalized Intensity (%) did it give?
A: 11%

Q: Which Normalized Intensity (%) does the source give for Ac-LRRQ-{surface (amide)} (reading uncertain; also: C-terminus amide-linked to surface) [LRRQ, surface-immobilized peptide] here?
A: 10%

Q: Which Normalized Intensity (%) does the source give for Ac-FLRRQFKVVT-{surface (amide)} (reading uncertain; also: C-terminus amide-linked to surface) here?
A: 98%

Q: For Ac-FLRRQFKVV-{surface (amide)} (reading uncertain; also: C-terminus amide-linked to surface), which Normalized Intensity (%) is on record?
A: 37%

Q: Ac-RRQFKVVT-{surface (amide)} (reading uncertain; also: C-terminus amide-linked to surface) [RRQFKVVT, surface-immobilized peptide] was tested. Which Normalized Intensity (%) did it give?
A: 99%

Q: With Ac-FLRRQF-{surface (amide)} (reading uncertain; also: C-terminus amide-linked to surface) [FLRRQF, surface-immobilized peptide] as the binder, how does the Normalized Intensity (%) read?
A: 8%

Q: How did the Normalized Intensity (%) turn out when Ac-RQFK-{surface (amide)} (reading uncertain; also: C-terminus amide-linked to surface) [RQFK, surface-immobilized peptide] was run?
A: 13%

Q: Which Normalized Intensity (%) does the source give for Ac-LRRQF-{surface (amide)} (reading uncertain; also: C-terminus amide-linked to surface) [LRRQF, surface-immobilized peptide] here?
A: 10%

Each binder was assayed against monoclonal antibody D32.39 (assay: solution competition of free peptide against radiolabeled dynorphin B peptide for D32.39).

Q: How did the IC50 turn out when Ac-RQFKVVT-NH2 [Ac-RQFKVVT-NH2, free peptide] was run?
A: 7.3 nM

Q: With Ac-FKVVT-OH [Ac-FKVVT-OH, free peptide] as the binder, how does the IC50 read?
A: 77000 nM

Q: How did the IC50 turn out when Ac-RQFKVVT-OH [Ac-RQFKVVT-OH, free peptide] was run?
A: 11 nM

Q: Ac-QFKVVT-OH [Ac-QFKVVT-OH, free peptide] was tested. Which IC50 did it give?
A: 3200 nM

Q: Which IC50 does the source give for Ac-RRQFKVVT-OH [Ac-RRQFKVVT-OH, free peptide] here?
A: 3.9 nM

Target: monoclonal antibody D32.39
Test: not given
Remark: another data set of the same source

Q: With Ac-FLRRQFKVVT-{surface (amide)} (reading uncertain; also: C-terminus amide-linked to surface) as the binder, how does the relative signal read?
A: 100%
